Data taken from the RNAGym collection of RNA variant scans (doi:10.1073/pnas.2313332121).
This sample holds only a part of the variants without activity.

B1: TPR 5TU (parent)
chain: GGAUCUUCUCGAUCUAACAAAAAAGACAAAUCUGCCACAAAGCUUGAGAGCAUCUUCGGAUGCAGAGGCGGCAGCCUUCGGUGGCGCGAUAGCGCCAACGUUCUCAACUAUGACACGCAAAACGCGUGCUCCGUUGAAUGGAGUUUAUCAUG

Variants of: B1
Experiment: polymerase ribozyme fitness, log enrichment relative to wild type (log ratio); higher = more active; in vitro selection for triplet polymerase activity
Summary of the method: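 A heterodimeric triplet polymerase ribozyme had each of its subunits mutagenized by PCR into a library, which was transcribed. One round of in vitro selection, done in triplicate, annealed each library with a biotinylated primer, its partner subunit and triplets, then incubated it frozen at −7 °C before gel excision of extended constructs, streptavidin-bead capture and RT-PCR. Fitness is the logarithm of genotype enrichment relative to wild-type enrichment, based on Illumina sequencing of inputs and outputs and inverse-variance-weighted replicate averages. A base-2 logarithm is used, and genotypes were kept only with ≥10 input reads and ≥1 read per output.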

Row | Variant | polymerase ribozyme fitness (log ratio)
1 | GGAUCUUCUCGAUCUAACAAAAAAGACAAAUCUGCCACAAAGCUUGAGAGCAUCUUCGGAUGCAGAGGCGGCAGCCUUCGGUGGUGCGAUAGCGCCAACGUUCUCAACUAUGACACGCAAAACGCGUGCUCCGUUGAAUGGAGUUUGUCAUG | -1.25
2 | GGAUCUUCUCGAUCUAACAAAAAAGACAAAUCUGCCACAAAGCUUGAGAGCAUCUUCGGAUGCAGAGGCGGCAGCCUUCGGUGGGGCGAUAGCGCCAACGUCCUCAACUAUGACACGCAAAACGCGUGCUCCGUUGAAUGUAGUUUAUCAUG | -3.43
3 | GGAUCUUCUCGAUCUAACAAAAAAGACAAAUCUGCCACAAAGCUUGAGAGCAUCUUCGGAUGCAGAGGCGGCAGCCUUCGGUGGGGCGAUAGCGCCAACAUUCUCAACUAUGACACGCAAAACGCGUGCUCCGUUGAAUGGAGUUUAUCAUG | ≤ -4.2
4 | GGAUCUUCUCGAUCUAACAAAAAAGACAAAUCUGCCACAAAGCUUGAGAGCAUCUUCGGAUGCAGAGGCGGCAGCCUUCGGUGGGGCGAUAGCGCCAACGUUCUCAACUAUGACACGCAAAACGCGUGCUCCGUUGAAAGGAGUUUAUCAUG | -4.19
5 | GGAUCUUCUCGAUCUAACAAAAAAGACAAAUCUGCCACAAAGCUUGAGAGCAUCUUCGGAUGCAGAGGCGGCAGCCUUCGGUGGUGCGUUAGCGCCAACGUUCUCGACUAUGACACGCAAAACGGGUGCUCCGUUGAAUGGAGUUUAUCAUG | -1.15
6 | GGAUCUUCUCGAUCUAACAAAAAAGACAAAUCUGCCACAAAGCUUGAGAGCAUCUUCGGAUGCAGAGGCGGCAGCCUUCGGUGGUGCGAUAGCGCCAACGUUCUCAACUAUGACUCGAAGAACGCGUGCUCCGUUGAAUGGAGUUUAUCAUG | -3.37
7 | GGAUCUUCUCGAUCUAACAAAAAAGACAAAUCUGCCACAAAGCUUGAGAGCAUCUUCGGAUGCAGAGGCGGCAGCCUUCGGUGGGGCGAUAGCGCCAACGUUCUCAACUAUGACACGGAAAACGCGUGCUCCGUUGAAUGGAGUUUAUCAUG | -2.62
8 | GGAUCUUCUCGAUCUAACAAAAAAGACAAAUCUGCCACAAAGCUUGAGAGCAUCUUCGGAUGCAGAGGCGGCAGCCUUCGGUGGGGCGAUAGCGCCAACGUUCUCAACUAUGACACGCAAAACGCGUGCUCCGUUGAAUGGAGAUUAUCAUG | -2.27
9 | GGAUCUUCUCGAUCUAACAAAAAAGACAAAUCUGCCACAAAGCUUGAGAGCAUCUUCGGAUGCAGAGGCGGCAGCCUUCGGUGGGGCGAUAUCGCCAACGUUCUCAACUAUGACACGCAAAACGCGUGCUCCGUUGAUUGGAGUAUAUCAUG | ≤ -4.2
10 | GGAUCUUCUCGAUCUAACAAAAAAGACAAAUCUGCCACAAAGCUUGAGAGCAUCUUCGGAUGCAGAGGCGGCAGCCUUCGGUGGGGCGAUAGCACCAACGUUCUCAACUAUGACACUCAAAACUCGUGCUCCGUGGAAUGGAGUUUAUCAUG | -3.69
11 | GGAUCUUCUCGAUCUAACAAAAAAGACAAAUCUGCCACAAAGCUUGAGAGCAUCUUCGGAUGCAGAGGCGGCAGCCUUCGGUGGUGCGAUCGCGCCAACGUUCUUAACUAUGACACGCAAAACGCGUGCUCCGUUGAAUGGAGUUUAUCAUG | ≤ -4.2
12 | GGAUCUUCUCGAUCUAACAAAAAAGACAAAUCUGCCACAAAGCUUGAGAGCAUCUUCGGAUGCAGAGGCGGCAGCCUUCGGUGGGGCAAUAGCGCCAACGUUCUCAACUAUGACACGCAAAACGCGUGCUCCGUUGAAUGGAGUUUAUCAUG | -4.01
13 | GGAUCUUCUCGAUCUAACAAAAAAGACAAAUCUGCCACAAAGCUUGAGAGCAUCUUCGGAUGCAGAGGCGGCAGCCUUCGGUGGGGCGAUAGCGCCAACGUUCUCAACUAUGACACGUAAAACGCGUGCUCUGUUGAAUGGAGUUUAUCAUG | -3.11
14 | GGAUCUUCUCGAUCUAACAAAAAAGACAAAUCUGCCACAAAGCUUGAGAGCAUCUUCGGAUGCAGAGGCGGCAGCCUUCGGUGGGGCGAUAGCGCCAACGUUCUCAACUAUGACACGAAAAACGCGUGCUCCGUUGAAUGGUGUUUAUCAUG | -2.93
15 | GGAUCUUCUCGAUCUAACAAAAAAGACAAAUCUGCCACAAAGCUUGAGAGCAUCUUCGGAUGCAGAGGCGGCAGCCUUCGGUGGUGCGAUAGCGCCAACGUUCUCAACUAUGGCACGCAAAACGCGUGCUCCGUUGAAUGGAGUUUAUCAUG | -1.86
16 | GGAUCUUCUCGAUCUAACAAAAAAGACAAAUCUGCCACAAAGCUUGAGAGCAUCUUCGGAUGCAGAGGCGGCAGCCUUCGGUGGGGCGAUACCGCCAACGUUCUCAACUAUGACACGCAACACGCGUGCUCUGUUGAAUGGAGUUAAUCAUG | ≤ -4.2
17 | GGAUCUUCUCGAUCUAACAAAAAAGACAAAUCUGCCACAAAGCUUGAGAGCAUCUUCGGAUGCAGAGGCGGCAGCCUUCGGUGGUGCGAUAGCGCCAUCGUUCUCAACUAUGACACGCAAAACGCGUGCUCCGUUGAAAGGAGUUUAUCAUG | ≤ -4.2
18 | GGAUCUUCUCGAUCUAACAAAAAAGACAAAUCUGCCACAAAGCUUGAGAGCAUCUUCGGAUGCAGAGGCGGCAGCCUUCGGUGGGGCGAUAGCGCCAACGUUCUCAACUAUGACACGCAAAACGCGUGCUCCGUUGAAUGAAGUUUAUCAUG | -2.85
19 | GGAUCUUCUCGAUCUAACAAAAAAGACAAAUCUGCCACAAAGCUUGAGAGCAUCUUCGGAUGCAGAGGCGGCAGCCUUCGGUGGUGCGCUAGUGCCAACGUUCUCAACUAUGACACGCAAAACGCGUGCUCCGUUGAAUGGAGUUUAUUAUG | -3.26

Row | Variant | polymerase ribozyme fitness (log ratio)
20 | GGAUCUUCUCGAUCUAACAAAAAAGACAAAUCUGCCACAAAGCUUGAGAGCAUCUUCGGAUGCAGAGGCGGCAGCCUUCGGUGGGGCGAUAGCGCCAACGGUCUCAACUAUGACACGCAAAACGCGUUCUCCGUUGAAUGGAGUUUAUCAUG | -4.03
21 | GGAUCUUCUCGAUCUAACAAAAAAGACAAAUCUGCCACAAAGCUUGAGAGCAUCUUCGGAUGCAGAGGCGGCAGCCUUCGGUGGUGCGCUAGCGCCAACGUUCUCAACUAUGACACGCAAAACGCGUGCUCCGUUGAAUGGAGUUUAUCAUG | -1.13
22 | GGAUCUUCUCGAUCUAACAAAAAAGACAAAUCUGCCACAAAGCUUGAGAGCAUCUUCGGAUGCAGAGGCGGCAGCCUUCGGUGGUGCGAUAGCGCCAACGUUCUCAACUAUGACACGCAGAACUCGUGCUCCGUUGAAUGGACUUUAUCAUG | -3.46
23 | GGAUCUUCUCGAUCUAACAAAAAAGACAAAUCUGCCACAAAGCUUGAGAGCAUCUUCGGAUGCAGAGGCGGCAGCCUUCGGUGGGGCGAUAGCGCCAACGUUCUCAACUAUGACACGCAAAACGCGUGCUCGGUUGAAUGGAGUUUAUCAUG | ≤ -4.2
24 | GGAUCUUCUCGAUCUAACAAAAAAGACAAAUCUGCCACAAAGCUUGAGAGCAUCUUCGGAUGCAGAGGCGGCAGCCUUCGGUGGGGCGAUAGCGCCAACGUUCUCAACUAUGACACGCAAAACGCGUGCUCCGAUGAAUGGAGUUUAUCAUG | -3.86
25 | GGAUCUUCUCGAUCUAACAAAAAAGACAAAUCUGCCACAAAGCUUGAGAGCAUCUUCGGAUGCAGAGGCGGCAGCCUUCGGUGGUGCGAUAGCGCCAACGUUCUCAACUAUGACACGCAAAACGCGUGCUCCGUUGAAUGGCGUUUAUCAUG | -1.12
26 | GGAUCUUCUCGAUCUAACAAAAAAGACAAAUCUGCCACAAAGCUUGAGAGCAUCUUCGGAUGCAGAGGCGGCAGCCUUCGGUGGGGCGAUAGCGCCAACGUUCUCAACUAUGACACGCAAAACGCGUGCUCCCUCGAAUGGAGUUUAUCAUG | ≤ -4.2
27 | GGAUCUUCUCGAUCUAACAAAAAAGACAAAUCUGCCACAAAGCUUGAGAGCAUCUUCGGAUGCAGAGGCGGCAGCCUUCGGUGGUGCGAUAGCGCCAACGUUCUCAACUAUGACACGCAGAACGCGUGCUCCGUUGAAUGGAGUUUAUCAUG | -1.65
28 | GGAUCUUCUCGAUCUAACAAAAAAGACAAAUCUGCCACAAAGCUUGAGAGCAUCUUCGGAUGCAGAGGCGGCAGCCUUCGGUGGGGCGAUAGCGCCAACGUUCUCAACUAUGACACGCAAAACGCGUGCUCCCUUGAAUGGAGUUUAUCAUG | -2.86
29 | GGAUCUUCUCGAUCUAACAAAAAAGACAAAUCUGCCACAAAGCUUGAGAGCAUCUUCGGAUGCAGAGGCGGCAGCCUUCGGUGGGGCGAUAGCGCCAACGUUCUCAACUAUGACACGCAAAACGAGUGCUCCGUUGAAUGGAGAUUAUCAUG | -3.57
30 | GGAUCUUCUCGAUCUAACAAAAAAGACAAAUCUGCCACAAAGCUUGAGAGCAUCUUCGGAUGCAGAGGCGGCAGCCUUCGGUGGGGCGAUAGCGCCAACGUUCUCAACUAUGACAAGCAAAACGCGUGCUCCGUUGAAUGGAGUUUAUCAUG | -0.515
31 | GGAUCUUCUCGAUCUAACAAAAAAGACAAAUCUGCCACAAAGCUUGAGAGCAUCUUCGGAUGCAGAGGCGGCAGCCUUCGGUGGGGCGAUAGCGCCAACGUUCUCAACUAUGACACGCAAAACGCGUGCUCCGUUAAAUGGAGUUUAUCAUG | -1.31
32 | GGAUCUUCUCGAUCUAACAAAAAAGACAAAUCUGCCACAAAGCUUGAGAGCAUCUUCGGAUGCAGAGGCGGCAGCCUUCGGUGGUGCGAUAGCGCCAUCGUUCUCAACUAUGACACGCAAAACGCGUGCUCCGUUGAAUGGAGUUUAUCAUG | -1.49
33 | GGAUCUUCUCGAUCUAACAAAAAAGACAAAUCUGCCACAAAGCUUGAGAGCAUCUUCGGAUGCAGAGGCGGCAGCCUUCGGUGGGGCGAUAGCGCCAACGUUCUCAACUAUGACACGCAAAACGAGUGCUCCGUUGAAUGGAGUUUAUCAUG | -2.37
34 | GGAUCUUCUCGAUCUAACAAAAAAGACAAAUCUGCCACAAAGCUUGAGAGCAUCUUCGGAUGCAGAGGCGGCAGCCUUCGGUGGGGCGAUAGCGCCAACGUUCUCAACUAUGACACGCAAAACGCGUGCUGCGUUGAAUGGAGUUUAUCAUU | ≤ -4.2
35 | GGAUCUUCUCGAUCUAACAAAAAAGACAAAUCUGCCACAAAGCUUGAGAGCAUCUUCGGAUGCAGAGGCGGCAGCCUUCGGUGGGGCGAUAGCGCCAACGUUCUCAACUAUGACACGCAAAACGCGUGGUCCGUUGAAUGGAGUUUAUCAUG | -4.11
36 | GGAUCUUCUCGAUCUAACAAAAAAGACAAAUCUGCCACAAAGCUUGAGAGCAUCUUCGGAUGCAGAGGCGGCAGCCUUCGGUGGGGCGAUAGCGCCAACGUUCUCAACUAUGACACGCAAAACGCGUGCGCCGUUGAAUGGAGUUUAUCAUG | ≤ -4.2
37 | GGAUCUUCUCGAUCUAACAAAAAAGACAAAUCUGCCACAAAGCUUGAGAGCAUCUUCGGAUGCAGAGGCGGCAGCCUUCGGUGGGGCGAUAGCGCCAACGUUCUCAACUAUGACACGCAAAACGCGUGCUCCGUUGAAUGUAGUUAAUCAUG | -0.46
38 | GGAUCUUCUCGAUCUAACAAAAAAGACAAAUCUGCCACAAAGCUUGAGAGCAUCUUCGGAUGCAGAGGCGGCAGCCUUCGGUGGUGCGAUAGCGCCAGCGUUCUCAACUAUGUCACGCAAAACGCGUGCUCCGUCGAAUGGAGUUUAUCAUG | -3.59
